{
  "source": "paper PMC4811699",
  "about": "(Biochemistry, 2016)",
  "proteins": {"B1": {"name": "Methanococcus jannaschii Thi4 (thiazole synthase) (enzyme)", "chain": "MVNLMNIKDIKLNADETKTTKAILKASFDMWLDIVEADVVIVGAGPSGLTCARYLAKEGFKVVVLERHLAFGGGTWGGGMGFPYIVVEEPADELLREVGIKLIDMGDGYYVADSVEVPAKLAVAAMDAGAKILTGIVVEDLILREDGVAGVVINSYAIERAGLHIDPLTIRSKVVVDATGHEASIVNILVKKNKLEADVPGEKSMWAEKGENALLRNTREVYPNLFVCGMAANASHGGYRMGAIFGGMYLSGKLCAELITEKLKNKE"}},
  "molecular_target": "the molecule itself",
  "experiment": "crystal structure",
  "data": [
    {"protein": "B1", "values": [
      {"measurement": "stoichiometry N", "result": 8}
    ]}
  ]
}
